Results on 41 sequences are retold here after the nanobody polyreactivity screen of Harvey et al. (2022).

This data set in a line: yeast display, Sf9 membrane polyspecificity reagent, FACS + sequencing; frameworks hold sequencing errors. The method in brief: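 Nanobodies from a synthetic yeast display library (Saccharomyces cerevisiae BJ5465), induced 36–48 hours with galactose, were stained 1 hour at 4 °C with 10% biotinylated, detergent-solubilized Sf9 membrane reagent, enriched on streptavidin microbeads, then FACS-sorted. Anti-HA (expression) and streptavidin (reagent binding) fluorescence set low and high (top ~1%) gates. Polyreactivity labels come from the gate of origin. Genes were colony-PCR amplified, MiSeq 2 × 250 sequenced and filtered by CDR length.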
Take “QVQLVESGGGLVQAGGSLRLSCAASGFIFDRYAMGWYRQAPGKERELVAAIDTASSTNYADSVKGRFTISRDNAKNTVDLQMNSLKPEDTAVYYCNASGYYYVIYWKVSNYNYWGQGTQVTVSS”: the “polyreactivity (PSR sort gate)” value is recorded as “low polyreactivity”.

“QVQLVESGGGLVQAGGSLRLSCAASGFIFDRYDMGWYRQAPGKERELVAAISYSGGSTYYADSVKGRFSISRDNAKNTVYFQMNSLKPEDTAVYYCATRVGYFYYEYSYDYWGQGTQVTVSS”: the “polyreactivity (PSR sort gate)” value was “low polyreactivity”.

As for “QVQLVESGGGLVQAGGSLRLSCAASGFIFDSYAMGWNRQAPGKERELVAAIDKRGGRTYYADSVKGRFTISRDNGKNTVYLQMNSLKPEDTAVYYCAADDYTGYGYWGQGTQVTVSS”, the “polyreactivity (PSR sort gate)” value is recorded as “high polyreactivity”.

“QVQLVESGGGLVQAGGSLRLSCAASGFIFDSYVMGWYRQAPGKEREMVAAISSGGASTYYADSVKGRFTISRDNAKNTVYLQMNSLKPEDTAVYYCAAEYLYQPWGVDYDYWGQGSQVTVSS”: the “polyreactivity (PSR sort gate)” value is “high polyreactivity”.

In the case of “QVQLVESGGGLVQAGGSLRLSCAASGFIFDTYALGWYRQAPGKERELVAVMSSSGGRTYYADSVKGRFTISRDNAKNTVYLQMNSLKPEDNAVYYCAARWYSGYGRFDYWGQGTQVTVSS”, the “polyreactivity (PSR sort gate)” value is “high polyreactivity”.

As to “QVQLVESGGGLVQAGGSLRLSCAASGFIFDTYAMGWYRQAPGKERDLVAVISSGGSTYYADSVKGRVTISRDNAKNTVYLQMNSLKPEDTAVYYCAADSGYLGIYGDDYSWGQGTQVSVSS”, the “polyreactivity (PSR sort gate)” value is on record as “low polyreactivity”.

Take “QVQLVESGGGLVQAGGSLRLSCAASGFIFDWYAMGWYRQAPGKERELVAAISYSGGSTYYADSVKGRFTISRDNAKNTVYLQMNSLKPEDTAVYYCNADIWYGDMDYWGQGTQVTVSS”: the “polyreactivity (PSR sort gate)” value is “high polyreactivity”.

For the sequence “QVQLVESGGGLVQAGGSLRLSCAASGFIFDYYAMGWYRQAPGKERELVAAITSRGGSTYYADSVKGRFTISRDNAKNTVYLQMNSLKPEDTAVYYCNKDPHYYATGRFYYWGQGTQVTVSS”, the “polyreactivity (PSR sort gate)” value is “high polyreactivity”.

In the case of “QVQLVESGGGLVQAGGSLRLSCAASGFIFDYYAMGWYRQAPGKERELVASISGDDGRTYYADSVKGRFTISRDNAKNTVYLQMNSLKPEDTAVYYCNAEWGVLNYDYWGQGTQVTVSS”, the “polyreactivity (PSR sort gate)” value was “low polyreactivity”.

On to “QVQLVESGGGLVQAGGSLRLSCAASGFIFEHYAMGWYRQAPVKERELVARISWRGGSTYYADSVKGRFTISRDNAKNTVYLQMNRLKPEDTAVYYCNALEVVYFGYYPSDYWGQGTQVTVSS”, for which the “polyreactivity (PSR sort gate)” value was “low polyreactivity”.

Take “QVQLVESGGGLVQAGGSLRLSCAASGFIFETYAMGWYRQAPGKERELVAAISRGASTYYADSVKGRFTISRDNAKNTVSLQMNSLKQEDTGVYYCAAKRLSWHRYGYWGQGTQVTVSS”: the “polyreactivity (PSR sort gate)” value was “low polyreactivity”.

Regarding “QVQLVESGGGLVQAGGSLRLSCAASGFIFEWYTMGWYRQAPGKERELVARISSDGSTTYADSVKGRFTISRDNAKNTVYLQMNSLKPEDTAVYYCAADVTYPGLKYIFDYWGQGTQVTVSS”, the “polyreactivity (PSR sort gate)” value is “low polyreactivity”.

For “QVQLVESGGGLVQAGGSLRLSCAASGFIFEYNTMGWYIQAPGKERELVAAISFIGGRTYYADSVKRRFTLSRDNAKNTVYLQMNSLKPVDTAVNYCNKRYGGYYSGARRVLYYYWGQGTQVTVSS”, the “polyreactivity (PSR sort gate)” value is given as “high polyreactivity”.

Turning to “QVQLVESGGGLVQAGGSLRLSCAASGFIFFINDMGWYRQAPGKERELVAAISWSGGSTYYADSVKGRFTISRDNAKNTVYLQMNSLKPEDTAVYYCNTDVPTAQYDYWGQGTQVTVSS”, the “polyreactivity (PSR sort gate)” value is on record as “low polyreactivity”.

With “QVQLVESGGGLVQAGGSLRLSCAASGFIFFKNAMGWYRQAPGKERELVDVISTSGGRTYYADSVKGRFTISRDYAKNTVYLQMNSLKPEDTAVYYCAAGDQYKTRRNGYGYWGQGTQVTVSS”, the “polyreactivity (PSR sort gate)” value was “high polyreactivity”.

“QVQLVESGGGLVQAGGSLRLSCAASGFIFFRYAMGWYRQAPGKERELVAAISTRTGITYYSDSVKGRFTISRDNAKNNVYLQMNRLKPEDTAVYDRNVLRSHSLYPFWKYDYWGQGTQVTVSS”: the “polyreactivity (PSR sort gate)” value is listed as “high polyreactivity”.

As to “QVQLVESGGGLVQAGGSLRLSCAASGFIFFSNAMGWYRQAPGKEMELVAAISRIGVSTYYADSLKGRFTISRDNAKNTVYLQMKSLKPEYTAVYYCNKSNPDYDGLAIHAFDYWGQGTQVTVSS”, the “polyreactivity (PSR sort gate)” value is listed as “low polyreactivity”.

“QVQLVESGGGLVQAGGSLRLSCAASGFIFFTYAMGWYRQAPGKERELVAAISSRGGSTYYADSVQGRFTISRDNAKKTVYLQMNSLKPEDTAVYYCAAQAYGGYPYGYWGQGTQVTVSS”: the “polyreactivity (PSR sort gate)” value is “high polyreactivity”.

“QVQLVESGGGLVQAGGSLRLSCAASGFIFFYYAMGWYRQAPGKERELVAAISASGGSTYYADSVKGRFTMSRDNAKNTVYLQMNSLKPEDTAVYYCATDPISRARLYGQRDYWGQGTQVTVSS”: the “polyreactivity (PSR sort gate)” value is given as “high polyreactivity”.

For the sequence “QVQLVESGGGLVQAGGSLRLSCAASGFIFFYYAMGWYRQAPGKERELVASINWSGGRTYYADSVKGRFTISRDNAKNTVYLQMNSLKPEDTAVYYCAADRRFSTYDYWGQGTQVTVSS”, the “polyreactivity (PSR sort gate)” value is listed as “high polyreactivity”.

On to “QVQLVESGGGLVQAGGSLRLSCAASGFIFFYYAMGWYRQAPGKERELVAVIDRSGGTTYYADSVKGRFTISRDNAKNTVYFQMNILKPEDTAVYYCNADDFTYPSGWGFIYDYWGQGTQVTVSS”, for which the “polyreactivity (PSR sort gate)” value is listed as “low polyreactivity”.

“QVQLVESGGGLVQAGGSLRLSCAASGFIFGDNAMGWYRQAPGKERELVAAINSGSRTSYADSVKGRFTISRDNAKNTVFLQMNSLKPEDTAVYYCAAESVSSGDNASRYDFWGQGTQVTVSS”: the “polyreactivity (PSR sort gate)” value is reported as “low polyreactivity”.

As to “QVQLVESGGGLVQAGGSLRLSCAASGFIFGFYAMGWYRQAPGKERELVADITSSGGSTYYADSVKGRFTISRDNAKYSVYLQMNSLKPEDTAVYYCAADGWWHNFYPGTGLDYWGQGTQVTVSS”, the “polyreactivity (PSR sort gate)” value is listed as “low polyreactivity”.

As to “QVQLVESGGGLVQAGGSLRLSCAASGFIFGGNAMGWYRQAPGKERELVAAISSGGRTYYADSVKGRFTISRDNAKNTVYLQMNSLKPEDTAVYYCNAYSYHRGRDYWGQGTQVTVSS”, the “polyreactivity (PSR sort gate)” value is given as “low polyreactivity”.

In the case of “QVQLVESGGGLVQAGGSLRLSCAASGFIFGGNAMGWYRQAPGKERELVAAITARSGSTYYADSVKGRFTISRDNAKNTVYLQMNSLKPEDTAVYYCATPVYRSTYEYDYWGQGTQVTVSS”, the “polyreactivity (PSR sort gate)” value was “low polyreactivity”.

In the case of “QVQLVESGGGLVQAGGSLRLSCAASGFIFGGYAMGWSRQAPGKERELVAAISRSGGSTYYADSVKGRFTISRDNAKNTVYLQMNSLKPEDTAVYYCNAVPRRQGFNYWGQGTQVTVSS”, the “polyreactivity (PSR sort gate)” value was “high polyreactivity”.

As for “QVQLVESGGGLVQAGGSLRLSCAASGFIFGGYAMGWYIQGHGKERELVAAISSSGGSTYYADSVKGRFTISRDNAKNSVYLQMNSLKPEDTAVYYCAKVGWSRRYYYWGQGTKVTVSS”, the “polyreactivity (PSR sort gate)” value was “high polyreactivity”.

On to “QVQLVESGGGLVQAGGSLRLSCAASGFIFGGYAMGWYRQAPGKERELVAAISRSGGSTYYADSVKGRFTISRDNAKNTVYLQMNSLKPEDTAVYYCAAKFWPEDHRMDYWGQGTQVTVSS”, for which the “polyreactivity (PSR sort gate)” value is “low polyreactivity”.

On to “QVQLVESGGGLVQAGGSLRLSCAASGFIFGGYAMGWYRQAPGKERELVAAISRSGGSTYYADSVKGRFTISRDNGKNTLNLKMNSLKREDTAVYYCNAVPRRQGFNYWGQGTQVTVSS”, for which the “polyreactivity (PSR sort gate)” value is “high polyreactivity”.

Consider “QVQLVESGGGLVQAGGSLRLSCAASGFIFGKYAMGWYRQAHGKERELVAAITSDGRTYYADSVKGRFTISRDNAKNTVYLQMNSLKPEDTAVYYCAATRYGHRYYYRPYEYWGQGTQVTVSS”, for which the “polyreactivity (PSR sort gate)” value was “high polyreactivity”.

Turning to “QVQLVESGGGLVQAGGSLRLSCAASGFIFGKYAMGWYRQAPGKEREFVAAITGNGGSTYYADSVKGRFTISRDNAKNTVYLQMNSLKPEDTAVYYCNADRGYRRRSGMDYWGQGTQVTVSS”, the “polyreactivity (PSR sort gate)” value is “low polyreactivity”.

For “QVQLVESGGGLVQAGGSLRLSCAASGFIFGKYAMGWYRQAPGKEREVVAAITSGGSTYYADSVKGRFTISRDNAKNTVYLQMNSLKPEDTAVYYCAVPFTFWWSSYRYDYWGQGTQVTVSS”, the “polyreactivity (PSR sort gate)” value is “high polyreactivity”.

For “QVQLVESGGGLVQAGGSLRLSCAASGFIFGLYAMGWYRQAPGKERELVATISWDGGSTYYADSVKGRFTISRDNAKNTVYLQMNSLKPEDTAVYYCNARYIGGYGYWGQGTQVTVSS”, the “polyreactivity (PSR sort gate)” value is “low polyreactivity”.

“QVQLVESGGGLVQAGGSLRLSCAASGFIFGLYAMGWYRQAPGKERELVATISWDGGSTYYADSVKGRFTISRDYAKNTVYLQMNSLKPEDTAVYYCAATYLYRSPYVPMDYWGQGTQVTVSS”: the “polyreactivity (PSR sort gate)” value is “low polyreactivity”.

With “QVQLVESGGGLVQAGGSLRLSCAASGFIFGNNDMGWYRQAPGKERELVAGITWSGSSTYYADSVKGRFTISRDNAKNTVYLQMNSLKPEDTAVYYCNRVFTWRYGYRYEYWGQGTQVTVSS”, the “polyreactivity (PSR sort gate)” value was “high polyreactivity”.

For “QVQLVESGGGLVQAGGSLRLSCAASGFIFGNYAMGWYRQAPGKERELVATITRRGGRTYYADSVKGRFTISRDNAKNTVYLQMNSLKPEDSAVYYCNARPSRWAREGYWGQGTQVTVSS”, the “polyreactivity (PSR sort gate)” value is recorded as “high polyreactivity”.

“QVQLVESGGGLVQAGGSLRLSCAASGFIFGNYDMEWYRPAPGKERELVAAITNGGGNTYYADSVKGRITISRDNAKNTVYLQMNSLKPEDTAVSYCHPLRYYYWGQGTQVTVSS”: the “polyreactivity (PSR sort gate)” value is “high polyreactivity”.

Take “QVQLVESGGGLVQAGGSLRLSCAASGFIFGNYVMGWYRPAPGKERELVAAISESGSRTYYADSVKGRFTISRDNAKNTVYLQMNSLKPEDTAVYYCAAALFSYYGEYDYWGQGTQVTVSS”: the “polyreactivity (PSR sort gate)” value was “low polyreactivity”.

On to “QVQLVESGGGLVQAGGSLRLSCAASGFIFGQYAMGWYRQAPGKERELVAAISRSGGSTYYADSVKGRFTISRDNAKNTVYLQMNSLKPEDTAVYYCNRRDRGDSYRLDYWGQGTQVTVSS”, for which the “polyreactivity (PSR sort gate)” value is given as “high polyreactivity”.

With “QVQLVESGGGLVQAGGSLRLSCAASGFIFGRNAMGWYRQAPGKERELVAAINWRGGSTYYADSVKGRCTISRDNAKNTVYLQMNSLKPEDTAVYYCAARGPYRYGYDYWGQGTQVTVSS”, the “polyreactivity (PSR sort gate)” value was “high polyreactivity”.

In the case of “QVQLVESGGGLVQAGGSLRLSCAASGFIFGRYAMGWYRQAPGKERELVAAISRGGGSTRYADSVKGRFTISRDNAKNTVYLQMKSLKPEDTAVYYCAAYRYWGRTSYSYDYWGQGTQVTVSS”, the “polyreactivity (PSR sort gate)” value was “high polyreactivity”.
